Results reported in patent publication US20250368753A1.
Changes are numbered by the printed parent chain.

B1: Reference Antibody (antibody, V domains shown)
VH: QVQLVQSGAEVKKPGASVKVSCKASGYTFTSYYMHWVRQAPGQGLEWMGEISPFGGRTNYNEKFKSRVTMTRDTSTSTVYMELSSLRSEDTAVYYCARERPLYASDLWGQGTTVTVSS
VL: DIQMTQSPSSLSASVGDRVTITCRASQGISSALAWYQQKPGKAPKLLIYSASYRYTGVPSRFSGSGSGTDFTFTISSLQPEDIATYYCQQRYSLWRTFGQGTKLEIK
B2: AB-7 (antibody, V domains shown)
VH: B1 VH with S52F, F54S, L102F
VL: B1 VL with Y53N, R54L
B3: AB-5 (antibody, V domains shown)
VH: B1 VH with Y33W, F54S, R57S, S105M, L107V
VL: B1 VL
B4: AB-3 (antibody, V domains shown)
VH: B1 VH with Y33W, S52D, F54S, R57S, E62Q, K65Q, L107V
VL: B1 VL
B5: AB-2 (antibody, V domains shown)
VH: B1 VH with E50W, S52E, S105M, L107V
VL: B1 VL with S31G, W95S
B6: AB-9 (antibody, V domains shown)
VH: B1 VH with S52K, F54S, R57T, T58S, E99D, A104Y, L107V
VL: B1 VL with S31G, A32S, R91Y, L94N, W95Y, R96W
B7: AB-6 (antibody, V domains shown)
VH: B1 VH with R57T, A104S, L107V
VL: B1 VL with R54L, T56S, R96Y
B8: AB-8 (antibody, V domains shown)
VH: B1 VH with S52L, F54S, S105M, L107I
VL: B1 VL with L94T
B9: AB-11 (antibody, V domains shown)
VH: B1 VH with T28S, S52D, P53L, F54S, R57S, E62Q, K65Q, S105F, L107V
VL: B1 VL
B10: AB-10 (antibody, V domains shown)
VH: B1 VH with S52L, F54S, S105M, L107V
VL: B1 VL with L94V, W95A, R96L
B11: AB-1 (antibody, V domains shown)
VH: B1 VH with S52L, F54G, R57T, E62Q, R100S, L107I
VL: B1 VL with S31T, R54L
B12: AB-4 (antibody, V domains shown)
VH: B1 VH with S52R, F54S, R57S, E99D, A104S, S105M, L107V
VL: B1 VL with R91H, L94S, W95S, R96W

Target: proprotein convertase subtilisin/kexin type 9 (PCSK9) (human) (UniProt Q8NBP7)
Chain of UniProt Q8NBP7 (Q8NBP7 other isoform, or with tags, fused parts or gaps limits assumed): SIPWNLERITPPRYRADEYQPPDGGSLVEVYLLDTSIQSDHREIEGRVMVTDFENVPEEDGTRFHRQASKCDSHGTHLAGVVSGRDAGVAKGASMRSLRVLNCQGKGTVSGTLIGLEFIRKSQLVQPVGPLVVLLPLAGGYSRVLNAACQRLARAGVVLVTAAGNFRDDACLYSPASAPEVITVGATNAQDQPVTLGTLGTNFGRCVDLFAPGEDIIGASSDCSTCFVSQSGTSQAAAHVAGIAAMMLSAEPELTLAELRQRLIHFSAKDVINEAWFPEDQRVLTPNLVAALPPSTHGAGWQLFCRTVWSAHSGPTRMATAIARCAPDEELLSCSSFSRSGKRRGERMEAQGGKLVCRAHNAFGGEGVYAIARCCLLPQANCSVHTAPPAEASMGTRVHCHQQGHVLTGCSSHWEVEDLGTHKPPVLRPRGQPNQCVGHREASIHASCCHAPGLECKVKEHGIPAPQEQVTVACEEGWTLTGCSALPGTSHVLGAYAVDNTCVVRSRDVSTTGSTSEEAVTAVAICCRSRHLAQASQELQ
Assay: DELFIA immunoassay (PerkinElmer Cat. #1244-330), full-length IgG on PCSK9

Relative Binding to PCSK9 Measured by DELIFA Immunoassay	Molecule
6.6	B1
2	B2
4.3	B3
2.8	B4
3.1	B5
3.9	B6
1.8	B7
2.9	B8
2.4	B9
4.3	B10
1.8	B11
2.9	B12

Target: proprotein convertase subtilisin/kexin type 9 (PCSK9) (human) (UniProt Q8NBP7)
Assay: DELFIA immunoassay (PerkinElmer Cat. #1244-330) on PCSK9

Relative Binding to PCSK9 Measured by DELIFA Immunoassay	Molecule
5.2	Control (antibody)

Target: proprotein convertase subtilisin/kexin type 9 (PCSK9) (human) (UniProt Q8NBP7)
Assay: PCSK9 biochemical disruption assay (BPS Biosciences Cat. #72010); antibody disrupts PCSK9 binding to LDL-R; positive signal but IC50 not reached at the concentrations tested

IC50 [nM]	Molecule
> 53	B6
> 53	B12

Target: proprotein convertase subtilisin/kexin type 9 (PCSK9) (human) (UniProt Q8NBP7)
Assay: PCSK9 biochemical disruption assay (BPS Biosciences Cat. #72010); antibody disrupts PCSK9 binding to LDL-R

IC50 [nM]	Molecule
20	B1
18.1	B2
18.9	B3
16.1	B4
17.2	B5
16.5	B7
18.4	B8
20.8	B9
20.1	B10
18.4	B11
